Reference: IntAct's records for PubMed 25910212

B1: SH2 domain-containing protein 1A (Homo sapiens), O60880 (parent)
chain: MDAVAVYHGKISRETGEKLLLATGLDGSYLLRDSESVPGVYCLCVLYHGYIYTYRVSQTETGSWSAETAPGVHKRYFRKIKNLISAFQKPDQGIVIPLQYPVEKKSSARSTQGTTGIREDPDVCLKAP
B2: Carbonic anhydrase-related protein (Homo sapiens), P35219 (parent)
chain: MADLSFIEDTVAFPEKEEDEEEEEEGVEWGYEEGVEWGLVFPDANGEYQSPINLNSREARYDPSLLDVRLSPNYVVCRDCEVTNDGHTIQVILKSKSVLSGGPLPQGHEFELYEVRFHWGRENQRGSEHTVNFKAFPMELHLIHWNSTLFGSIDEAVGKPHGIAIIALFVQIGKEHVGLKAVTEILQDIQYKGKSKTIPCFNPNTLLPDPLLRDYWVYEGSLTIPPCSEGVTWILFRYPLTISQLQIEEFRRLRTHVKGAELVEGCDGILGDNFRPTQPLSDRVIRAAFQ
partner: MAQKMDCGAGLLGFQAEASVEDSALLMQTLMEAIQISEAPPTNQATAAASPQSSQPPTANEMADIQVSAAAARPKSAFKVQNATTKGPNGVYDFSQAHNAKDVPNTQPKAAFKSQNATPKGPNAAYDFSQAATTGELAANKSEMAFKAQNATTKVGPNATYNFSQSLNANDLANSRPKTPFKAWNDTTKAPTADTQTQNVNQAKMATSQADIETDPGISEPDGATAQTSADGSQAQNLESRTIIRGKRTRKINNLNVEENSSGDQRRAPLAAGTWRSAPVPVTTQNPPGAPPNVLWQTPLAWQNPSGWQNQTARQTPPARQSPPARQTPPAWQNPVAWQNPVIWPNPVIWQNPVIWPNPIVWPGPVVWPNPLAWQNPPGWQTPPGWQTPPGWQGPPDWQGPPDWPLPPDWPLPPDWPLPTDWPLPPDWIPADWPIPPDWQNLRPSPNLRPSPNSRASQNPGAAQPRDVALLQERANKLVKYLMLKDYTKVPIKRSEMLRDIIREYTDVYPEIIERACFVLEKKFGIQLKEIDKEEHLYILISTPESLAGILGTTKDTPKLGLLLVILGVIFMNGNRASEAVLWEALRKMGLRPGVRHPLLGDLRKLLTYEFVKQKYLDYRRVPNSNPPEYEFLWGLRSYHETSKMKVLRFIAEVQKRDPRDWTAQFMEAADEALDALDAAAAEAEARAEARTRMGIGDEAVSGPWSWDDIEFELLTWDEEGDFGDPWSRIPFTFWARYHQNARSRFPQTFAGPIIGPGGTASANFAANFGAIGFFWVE
B3: Casein kinase I isoform epsilon (Homo sapiens), P49674 (parent)
chain: MELRVGNKYRLGRKIGSGSFGDIYLGANIASGEEVAIKLECVKTKHPQLHIESKFYKMMQGGVGIPSIKWCGAEGDYNVMVMELLGPSLEDLFNFCSRKFSLKTVLLLADQMISRIEYIHSKNFIHRDVKPDNFLMGLGKKGNLVYIIDFGLAKKYRDARTHQHIPYRENKNLTGTARYASINTHLGIEQSRRDDLESLGYVLMYFNLGSLPWQGLKAATKRQKYERISEKKMSTPIEVLCKGYPSEFSTYLNFCRSLRFDDKPDYSYLRQLFRNLFHRQGFSYDYVFDWNMLKFGAARNPEDVDRERREHEREERMGQLRGSATRALPPGPPTGATANRLRSAAEPVASTPASRIQPAGNTSPRAISRVDRERKVSMRLHRGAPANVSSSDLTGRQEVSRIPASQTSVPFDHLGK
partner: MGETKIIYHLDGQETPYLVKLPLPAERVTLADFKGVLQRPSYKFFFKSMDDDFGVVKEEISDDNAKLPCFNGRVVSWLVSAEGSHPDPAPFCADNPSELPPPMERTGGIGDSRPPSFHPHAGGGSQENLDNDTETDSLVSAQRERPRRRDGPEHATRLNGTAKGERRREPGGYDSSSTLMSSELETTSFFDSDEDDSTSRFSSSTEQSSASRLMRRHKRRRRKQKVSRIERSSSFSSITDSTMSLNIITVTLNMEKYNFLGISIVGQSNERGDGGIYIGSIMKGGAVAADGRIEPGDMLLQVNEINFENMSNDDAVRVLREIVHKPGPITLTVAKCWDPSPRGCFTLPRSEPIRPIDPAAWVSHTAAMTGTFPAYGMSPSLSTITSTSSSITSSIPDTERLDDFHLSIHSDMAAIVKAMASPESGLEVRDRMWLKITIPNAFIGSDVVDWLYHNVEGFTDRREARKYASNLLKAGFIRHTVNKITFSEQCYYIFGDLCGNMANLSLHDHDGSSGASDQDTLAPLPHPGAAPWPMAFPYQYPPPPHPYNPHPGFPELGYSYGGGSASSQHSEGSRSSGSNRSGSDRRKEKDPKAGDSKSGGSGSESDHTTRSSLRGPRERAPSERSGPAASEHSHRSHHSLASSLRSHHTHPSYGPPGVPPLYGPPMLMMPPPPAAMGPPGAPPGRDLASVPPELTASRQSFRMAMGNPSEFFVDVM
B4: B-cell lymphoma/leukemia 10 (Homo sapiens), O95999 (parent)
chain: MEPTAPSLTEEDLTEVKKDALENLRVYLCEKIIAERHFDHLRAKKILSREDTEEISCRTSSRKRAGKLLDYLQENPKGLDTLVESIRREKTQNFLIQKITDEVLKLRNIKLEHLKGLKCSSCEPFPDGATNNLSRSNSDESNFSEKLRASTVMYHPEGESSTTPFFSTNSSLNLPVLEVGRTENTIFSSTTLPRPGDPGAPPLPPDLQLEEEGTCANSSEMFLPLRSRTVSRQ
partner: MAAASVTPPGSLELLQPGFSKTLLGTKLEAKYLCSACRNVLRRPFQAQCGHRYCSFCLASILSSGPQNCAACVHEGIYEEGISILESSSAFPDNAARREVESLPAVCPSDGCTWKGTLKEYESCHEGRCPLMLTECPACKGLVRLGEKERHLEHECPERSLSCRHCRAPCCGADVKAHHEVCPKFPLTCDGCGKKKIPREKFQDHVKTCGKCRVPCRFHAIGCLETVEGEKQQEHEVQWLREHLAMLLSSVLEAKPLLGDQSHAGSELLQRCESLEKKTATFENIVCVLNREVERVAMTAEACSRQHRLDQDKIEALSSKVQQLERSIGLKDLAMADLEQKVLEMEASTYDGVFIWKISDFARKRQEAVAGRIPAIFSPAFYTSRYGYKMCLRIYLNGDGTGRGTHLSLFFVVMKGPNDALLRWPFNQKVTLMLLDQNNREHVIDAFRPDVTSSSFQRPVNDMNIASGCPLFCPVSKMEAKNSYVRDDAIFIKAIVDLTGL
B5: EGF-containing fibulin-like extracellular matrix protein 1 (Homo sapiens), Q12805 (parent)
chain: MLKALFLTMLTLALVKSQDTEETITYTQCTDGYEWDPVRQQCKDIDECDIVPDACKGGMKCVNHYGGYLCLPKTAQIIVNNEQPQQETQPAEGTSGATTGVVAASSMATSGVLPGGGFVASAAAVAGPEMQTGRNNFVIRRNPADPQRIPSNPSHRIQCAAGYEQSEHNVCQDIDECTAGTHNCRADQVCINLRGSFACQCPPGYQKRGEQCVDIDECTIPPYCHQRCVNTPGSFYCQCSPGFQLAANNYTCVDINECDASNQCAQQCYNILGSFICQCNQGYELSSDRLNCEDIDECRTSSYLCQYQCVNEPGKFSCMCPQGYQVVRSRTCQDINECETTNECREDEMCWNYHGGFRCYPRNPCQDPYILTPENRCVCPVSNAMCRELPQSIVYKYMSIRSDRSVPSDIFQIQATTIYANTINTFRIKSGNENGEFYLRQTSPVSAMLVLVKSLSGPREHIVDLEMLTVSSIGTFRTSSVLRLTIIVGPFSF
partner: B4 partner
B6: EF-hand domain-containing protein 1 (Homo sapiens), Q5JVL4 (parent)
chain: MVSNPVHGLPFLPGTSFKDSTKTAFHRSQTLSYRNGYAIVRRPTVGIGGDRLQFNQLSQAELDELASKAPVLTYGQPKQAPPADFIPAHVAFDKKVLKFDAYFQEDVPMSTEEQYRIRQVNIYYYLEDDSMSVIEPVVENSGILQGKLIKRQRLAKNDRGDHYHWKDLNRGINITIYGKTFRVVDCDQFTQVFLESQGIELNPPEKMALDPYTELRKQPLRKYVTPSDFDQLKQFLTFDKQVLRFYAIWDDTDSMYGECRTYIIHYYLMDDTVEIREVHERNDGRDPFPLLMNRQRVPKVLVENAKNFPQCVLEISDQEVLEWYTAKDFIVGKSLTILGRTFFIYDCDPFTRRYYKEKFGITDLPRIDVSKREPPPVKQELPPYNGFGLVEDSAQNCFALIPKAPKKDVIKMLVNDNKVLRYLAVLESPIPEDKDRRFVFSYFLATDMISIFEPPVRNSGIIGGKYLGRTKVVKPYSTVDNPVYYGPSDFFIGAVIEVFGHRFIILDTDEYVLKYMESNAAQYSPEALASIQNHVRKREAPAPEAESKQTEKDPGVQELEALIDTIQKQLKDHSCKDNIREAFQIYDKEASGYVDRDMFFKICESLNVPVDDSLVKELIRMCSHGEGKINYYNFVRAFSN
partner: B4 partner

Variants of: B1
Conditions: with TNK2, Q07912-2
Sequence of TNK2, Q07912-2 (Q07912 other isoform, or with tags, fused parts or gaps): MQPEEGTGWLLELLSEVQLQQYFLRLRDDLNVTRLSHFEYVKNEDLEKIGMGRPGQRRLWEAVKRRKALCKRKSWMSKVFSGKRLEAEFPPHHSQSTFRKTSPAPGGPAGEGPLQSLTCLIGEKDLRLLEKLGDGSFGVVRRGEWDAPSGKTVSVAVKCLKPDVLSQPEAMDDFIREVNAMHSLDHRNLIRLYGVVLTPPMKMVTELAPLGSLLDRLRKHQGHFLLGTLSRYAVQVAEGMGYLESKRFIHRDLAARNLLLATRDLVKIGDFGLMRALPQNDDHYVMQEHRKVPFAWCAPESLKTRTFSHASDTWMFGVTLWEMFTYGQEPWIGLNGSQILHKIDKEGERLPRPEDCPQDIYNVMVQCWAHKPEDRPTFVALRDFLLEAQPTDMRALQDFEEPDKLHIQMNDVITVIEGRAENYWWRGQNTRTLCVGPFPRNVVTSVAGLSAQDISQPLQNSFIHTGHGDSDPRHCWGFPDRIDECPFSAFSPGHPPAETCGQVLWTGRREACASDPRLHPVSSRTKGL

| Variant | effect of a mutation on the interaction |
| --- | --- |
| R32T | with no effect |
| G93D | with no effect |
| P101L | with no effect |

Variants of: B2
Conditions: with magd1_human MAGED1, Q9Y5V3

| Variant | effect of a mutation on the interaction |
| --- | --- |
| S100P | disrupting interaction strength |

Variants of: B3
Conditions: with dvl3_human DVL3, Q92997

| Variant | effect of a mutation on the interaction |
| --- | --- |
| S408N | disrupting interaction strength |

Variants of: B4
Conditions: with traf2_human TRAF2, Q12933

| Variant | effect of a mutation on the interaction |
| --- | --- |
| A5S | with no effect |

Variants of: B5
Conditions: with traf2_human TRAF2, Q12933

| Variant | effect of a mutation on the interaction |
| --- | --- |
| R345W | with no effect |

Variants of: B6
Conditions: with traf2_human TRAF2, Q12933

| Variant | effect of a mutation on the interaction |
| --- | --- |
| P77T | disrupting interaction strength |
| R159W | with no effect |
| R221H | disrupting interaction strength |
